First the molecules themselves.
T1: human GITR expressed on cells (human, UniProt Q9Y5U5 26-241)
T1 sequence: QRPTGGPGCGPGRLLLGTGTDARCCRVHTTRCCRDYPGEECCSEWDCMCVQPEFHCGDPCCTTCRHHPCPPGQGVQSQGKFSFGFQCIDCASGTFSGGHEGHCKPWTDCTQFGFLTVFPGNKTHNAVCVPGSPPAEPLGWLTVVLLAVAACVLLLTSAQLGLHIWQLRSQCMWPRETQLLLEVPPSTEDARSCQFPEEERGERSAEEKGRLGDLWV

T2: cynomolgus monkey GITR expressed on HT1080 cells (cynomolgus monkey)
T2 chain: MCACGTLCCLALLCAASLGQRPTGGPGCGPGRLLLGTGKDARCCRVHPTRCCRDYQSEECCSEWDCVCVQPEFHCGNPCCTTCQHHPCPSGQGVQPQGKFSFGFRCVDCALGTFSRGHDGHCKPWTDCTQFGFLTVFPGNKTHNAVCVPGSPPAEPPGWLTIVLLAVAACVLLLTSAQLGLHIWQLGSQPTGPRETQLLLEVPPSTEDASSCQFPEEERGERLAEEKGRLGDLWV

T3: human GITR-Fc (human, UniProt Q9Y5U5 26-162)
T3 construct: also called recombinant hGITR; wild type human GITR-Fc
T3 sequence: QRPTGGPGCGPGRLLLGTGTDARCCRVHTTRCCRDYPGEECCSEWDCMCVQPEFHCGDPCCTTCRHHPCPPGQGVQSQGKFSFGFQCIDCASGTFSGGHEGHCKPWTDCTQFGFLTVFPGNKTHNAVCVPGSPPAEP

T4: cyno GITR-Fc (cynomolgus monkey)
T4 construct: also called cGITR; cynomolgus GITR
T4 chain: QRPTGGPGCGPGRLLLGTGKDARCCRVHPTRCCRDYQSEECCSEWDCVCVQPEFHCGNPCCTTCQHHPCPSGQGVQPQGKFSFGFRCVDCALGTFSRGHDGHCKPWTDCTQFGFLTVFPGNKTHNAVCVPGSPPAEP

B1: ABP39 (antibody, human IgG1, kappa, N297A, V domains shown)
VH: QVQLQESGPGLVKPSETLSLTCAVSGYSISSGAGWGWIRQPPGKGLEWIGLIVHSGSTYYNPSLKSRVTISVDTSKNQFSLKLSSVTAADTAVYYCVLESVRGYGDYGGHHAFDIWGQGTMVTVSS
VL: DIQMTQSPSSLSASVGDRVTITCRASQSISSYLNWYQQKPGKAPKLLIYAADSLQSGVPSRFSGSGSGTDFTLTISSLQPEDFATYYCQQEYNTPPTFGGGTKVEIKR
notes: IgG1 N297A, bivalent; also called non-TM ABP corresponding to ABP6
B2: ABP41 (antibody, human IgG1, kappa, N297A, V domains shown)
VH: B1 VH with G32E, A33Y, G34M, V53Y, S57K, V97A, L98R, S100A, V101D
VL: B1 VL with R24G, S31T, A50S, D52S, Q55E, T97S
notes: IgG1 N297A, bivalent; also called non-TM ABP corresponding to ABP8
B3: ABP35 (antibody, human IgG1, kappa, N297A, V domains shown)
VH: B1 VH with A33L, L51G, V53Y, H54E, V97A, L98H, S100R
VL: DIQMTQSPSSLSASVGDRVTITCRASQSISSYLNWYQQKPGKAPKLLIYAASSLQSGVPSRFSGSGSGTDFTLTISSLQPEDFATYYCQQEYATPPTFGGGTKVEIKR
notes: IgG1 N297A, standard bivalent format; also called ABP35 IgG1; non-TM ABP corresponding to ABP1
B4: ABP38 (antibody, human IgG1, kappa, N297A, V domains shown)
VH: B1 VH with L46P
VL: B1 VL with Q27K, S30D, D52S
notes: IgG1 N297A, bivalent; also called non-TM ABP corresponding to ABP4/5
B5: ABP40 (antibody, human IgG1, kappa, N297A, V domains shown)
VH: B1 VH with G32E, A33Y, G34M, V53Y, S57K, V97A, L98R, S100A, V101D
VL: B1 VL with S30N, D52S, Q55D
notes: IgG1 N297A, bivalent; also called non-TM ABP corresponding to ABP7
B6: ABP37 (antibody, human IgG1, kappa, N297A, V domains shown)
VH: B1 VH
VL: B1 VL with D52S, Q55K, S56Y
notes: IgG1 N297A, bivalent; also called non-TM ABP corresponding to ABP3
B7: ABP36 (antibody, human IgG1, kappa, N297A, V domains shown)
VH: QVQLQESGPGLVKPSQTLSLTCTVSGGSISSGGAVWSWIRQHPGKGLEWIGGIAYSGSTYYNPSLKSRVTISVDTSKNQFSLKLSSVTAADTAVYYCADENVRGYGDYGGHHAFDIWGQGTMVTVSS
VL: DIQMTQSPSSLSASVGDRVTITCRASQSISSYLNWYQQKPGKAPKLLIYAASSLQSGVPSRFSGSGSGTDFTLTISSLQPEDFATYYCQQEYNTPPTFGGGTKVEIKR
notes: IgG1 N297A, bivalent; also called non-TM ABP corresponding to ABP2
B8: ABP44 (antibody, human IgG1, kappa, N297A, V domains shown)
VH: QVQLVQSGAEVKKPGSSVKVSCKASGGTFSSYYISWVRQAPGQGLEWMGGIIPVPGTANYAQKFQGRVTITADESTSTAYMELSSLRSEDTAVYYCARAGGGYARGDHYYGMDVWGQGTTVTVSS
VL: not shown
notes: IgG1 N297A, H1H2-optimized, non-TM
B9: ABP48 (antibody, human IgG1, kappa, N297A, V domains shown)
VH: B1 VH with G32E, A33Y, G34M, V53Y, S57K, V97A, L98R, E99D, V101G
VL: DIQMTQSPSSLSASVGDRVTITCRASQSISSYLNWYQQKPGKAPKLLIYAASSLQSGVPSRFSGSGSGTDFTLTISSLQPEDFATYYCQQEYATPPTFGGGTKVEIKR
notes: as for B8
B10: ABP42 (antibody, human IgG1, kappa, N297A, V domains shown)
VH: QLQLQESGPGLVKPSETLSLTCTVSGGSISSSSYAWGWIRQPPGKGLEWIGSIYYSGSTYYNPSLKSRVTISVDTSKNQFSLKLSSVTAADTAVYYCARDSGRGYGDYGGHHAFDIWGQGTMVTVSS
VL: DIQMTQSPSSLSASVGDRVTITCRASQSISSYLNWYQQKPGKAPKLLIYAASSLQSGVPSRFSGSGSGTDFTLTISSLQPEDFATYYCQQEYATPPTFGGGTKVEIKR
notes: IgG1 N297A, non-optimized, non-TM
B11: ABP11 (antibody, human IgG1, kappa, N297A, V domains shown)
VH: B8 VH with K13R, A40V
VL: not shown
B12: ABP12 (antibody, human IgG1, kappa, N297A, V domains shown)
VH: B8 VH with G44R
VL: not shown
B13: ABP14 (antibody, human IgG1, kappa, N297A, V domains shown)
VH: QVQLVQSGAEVKKPGSSVKVSCKASGGTFSSYAISWVRQAPGQGLEWMGGIIPISGFTNYAQKFQGRVTITADESTSTAYMELSSLRSEDTAVYYCAREGGHYYSGWPYWGQGTLVTVSS
VL: EIVLTQSPATLSLSPGERATLSCRASQSVSSYLAWYQQKPGQAPRLLIYDASNRATGIPARFSGSGSGTDFTLTISSLEPEDFAVYYCQQRLVFPPTFGGGTKVEIKR
B14: ABP15 (antibody, human IgG1, kappa, N297A, V domains shown)
VH: B13 VH with G44R
VL: B13 VL
B15: ABP17 (antibody, human IgG1, kappa, N297A, V domains shown)
VH: QVQLVQSGAEVKKPGSSVKVSCKASGGTFVRYAISWVRQAPGQGLEWMGGIIPIFGEAQYAQRFQGRVTITADESTSTAYMELSSLRSEDTAVYYCAREGYYYGALPYWGQGTLVTVSS
VL: B13 VL with R91H, L92S
B16: ABP16 (antibody, human IgG1, kappa, N297A, V domains shown)
VH: B13 VH with R67K
VL: B13 VL
B17: ABP18 (antibody, human IgG1, kappa, N297A, V domains shown)
VH: B15 VH with R63K, Q65R, V68A
VL: B13 VL with R91H, L92S
B18: ABP13 (antibody, human IgG1, kappa, N297A, V domains shown)
VH: QVQLVQSGAEVKKPGSSVKVSCKASGGTFSRGAISWVRQAPGQGLEWMGGIIPIEGTAYYAQKFQGRVTITADESTGTAYMELSSLRSEDTAVYYCARQSDYGLPRGMDVWGQGTTVTVSS
VL: DIQLTQSPSSVSASVGDRVTITCRASQGISSWLAWYQQKPGKAPKLLIYGASSLQSGVPSRFSGSGSGTDFTLTISSLQPEDFATYYCQQASLFPPTFGGGTKVEIKR

Where a chain is given by its changes, count along the chain named. Names may count otherwise.

One test addresses T1, human GITR expressed on cells. The test is described as follows: cell-based or functional assay.
Take B1: the “Average EC50 in human HT1080 (IL-8 induction)” value (“Average EC50 in human HT1080” for short) amounted to 0.44 nM.
As for B2, the “Average EC50 in human HT1080” value is 0.44 nM.
For B3, the “Average EC50 in human HT1080” value was found to be 0.88 nM.
On the same count and under the same terms, next, B4: 0.33 nM; B5: 0.34 nM.
On to B6, for which the “Average EC50 in human HT1080” value was determined as 0.19 nM.
Still for that read-out and setting: with B7 the figure was 0.58 nM.

The next test has as its target T2, cynomolgus monkey GITR expressed on …. The test can be described thus: cell-based or functional assay.
Consider B1, for which the “Average EC50 in cynomolgus HT1080 (IL-8 induction)” value (“Average EC50 in cynomolgus HT1080” for short) is 2.3 nM.
With B2, the “Average EC50 in cynomolgus HT1080” value came out at 2 nM.
As to B3, the “Average EC50 in cynomolgus HT1080” value was found to be 2 nM.
Still for that read-out and setting: next, B4: 14.3 nM.
In the case of B5, the “Average EC50 in cynomolgus HT1080” value was 1.1 nM.
Still for that read-out and setting: with B6 the figure was 1.7 nM; with B7, 8.8 nM.

The target of a further test is T1, human GITR expressed on cells. The test is described as follows: cell-based or functional assay. This is another data set of the same source.
In the case of B8, the “EC50 in human HT1080 (IL-8 induction), n = 2” value amounted to 4.2 nM.
Take B9: the “EC50 in human HT1080 (IL-8 induction), n = 2” value was found to be 0.8 nM.
The same measure, in the same setting: with B10 the figure was 17.8 nM.

The target of a further test is T2, cynomolgus monkey GITR expressed on …. The test can be described thus: cell-based or functional assay. The source holds these as a separate data set.
As to B8, the “EC50 in cynomolgus HT1080 (IL-8 induction), n = 1” value came out at 28 nM.

A further test has as its target T1, human GITR expressed on cells. The test can be described thus: cell-based or functional assay. This is another data set of the same source.
In the case of B11, the “EC50 in human HT1080 (IL-8 induction)” value was found to be 3.9 nM.
Turning to B12, the “EC50 in human HT1080 (IL-8 induction)” value was 3.5 nM.
The same measure, in the same setting: next, B13: 0.6 nM; B14: 0.6 nM; B15: 5.3 nM.
B16: the “EC50 in human HT1080 (IL-8 induction)” value was determined as 0.6 nM.
On to B17, for which the “EC50 in human HT1080 (IL-8 induction)” value was 2.1 nM.
As for B18, the “EC50 in human HT1080 (IL-8 induction)” value was determined as 7.8 nM.

Another test addresses T2, cynomolgus monkey GITR expressed on …. The test can be described thus: cell-based or functional assay. This is another data set of the same source.
With B11, the “EC50 in cynomolgus HT1080 (IL-8 induction)” value stood at 21.6 nM.
In the case of B12, the “EC50 in cynomolgus HT1080 (IL-8 induction)” value came to 28.4 nM.
Regarding B13, the “EC50 in cynomolgus HT1080 (IL-8 induction)” value was found to be 4.1 nM.
Consider B14, for which the “EC50 in cynomolgus HT1080 (IL-8 induction)” value was determined as 4.5 nM.
Turning to B15, the “EC50 in cynomolgus HT1080 (IL-8 induction)” value is 8.4 nM.
With B16, the “EC50 in cynomolgus HT1080 (IL-8 induction)” value stood at 3.8 nM.
On the same count and under the same terms, with B17 the figure was 13.2 nM.
Turning to B18, the “EC50 in cynomolgus HT1080 (IL-8 induction)” value came out at 15 nM.

Another test deals with T3, human GITR-Fc. The test can be described thus: BLI Octet RED384, ABP on AHQ sensor, 100 nM antigen, single concentration.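 Note: association and dissociation each tracked over 180 s, with dissociation run in antigen-free buffer.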 On the technique in general: In BLI a coated tip is dipped into the sample, and binding shifts an interference pattern.
Procedure: (§1) The sensors were quenched by dipping into an unrelated human IgG1 antibody to prevent non-specific binding of GITR-Fc antigens to the sensor. The sensors were equilibrated in assay buffer for 30 minutes. Baseline was established by dipping the sensors into assay buffer for 60 seconds. Association was monitored for 180 seconds in 100 nM of recombinant antigens, and dissociation was followed for 180 seconds in buffer alone. KD was determined using the kinetic function of the FORTEBIO® Analysis Software using a 1:1 binding model.
In general, Kd refers to a measure of binding affinity in units of concentration. As to B8, the Kd worked out at 46.5 nM.
B11 yielded a Kd of 3.1 nM.
Still for that read-out and setting: next, B12: 2.8 nM; B13: 2.8 nM.
B14: the Kd stood at 3.3 nM.
As to B15, the affinity, expressed as Kd, was 4.2 nM.
Take B16: the Kd turned out to be 2.9 nM.
Take B17: binding was put at a Kd of 4 nM.
On the same count and under the same terms, next, B18: 5.5 nM; B1: 0.7 nM; B2: 2.3 nM.
B3 returned a Kd of 1.5 nM.
Molecule B4 displayed a Kd of 0.6 nM.
B5 came in with a dissociation constant (Kd) of 2.2 nM.
Consider B9, for which the affinity, expressed as Kd, was 14.8 nM.
With B6, the Kd was determined as 0.7 nM.
In turn, B7 had a Kd of 1.4 nM.
For B10, the Kd amounted to 11.5 nM.

A further test deals with T4, cyno GITR-Fc. Described as above.
Procedure: as §1
In the case of B11, the Kd was determined as 8.5 nM.
Still for that read-out and setting: next, B12: 7.9 nM.
B13 registered a Kd of 5.9 nM.
Consider B14, for which the Kd was 5.2 nM.
In turn, B15 registered a Kd of 4.6 nM.
On to B16, for which the Kd turned out to be 5.4 nM.
With B17, the affinity, expressed as Kd, was 8.4 nM.
Consider B18, for which the Kd worked out at 6.4 nM.
In the case of B1, the Kd was 8.2 nM.
B2: the Kd came to 6.9 nM.
The molecule B3 returned a Kd of 5.7 nM.
B4: binding was put at a Kd of 11.1 nM.
In turn, B5 returned a dissociation constant Kd of 4.9 nM.
In the case of B9, the binding result is listed as “no binding (tested: 100 nM)”.
B6: binding was characterised by a dissociation constant (Kd) of 8.1 nM.
With B7, the affinity, expressed as Kd, was 7.5 nM.
B10: the binding result was “no binding (tested: 100 nM)”.

Values taken from patent US20210269542A1 (POTENZA THERAPEUTICS, published 2021).
